B1: CLK4-associating serine/arginine rich protein (Homo sapiens), Q8N2M8 (parent)
chain: MWHEARKHERKLRGMMVDYKKRAERRREYYEKIKKDPAQFLQVHGRACKVHLDSAVALAAESPVNMMPWQGDTNNMIDRFDVRAHLDHIPDYTPPLLTTISPEQESDERKCNYERYRGLVQNDFAGISEEQCLYQIYIDELYGGLQRPSEDEKKKLAEKKASIGYTYEDSTVAEVEKAAEKPEEEESAAEEESNSDEDEVIPDIDVEVDVDELNQEQVADLNKQATTYGMADGDFVRMLRKDKEEAEAIKHAKALEEEKAMYSGRRSRRQRREFREKRLRGRKISPPSYARRDSPTYDPYKRSPSESSSESRSRSRSPTPGREEKITFITSFGGSDEEAAAAAAAAAASGVTTGKPPAPPQPGGPAPGRNASARRRSSSSSSSSSASRTSSSRSSSRSSSRSRRGGGYYRSGRHARSRSRSWSRSRSRSRRYSRSRSRGRRHSGGGSRDGHRYSRSPARRGGYGPRRRSRSRSHSGDRYRRGGRGLRHHSSSRSRSSWSLSPSRSRSLTRSRSHSPSPSQSRSRSRSRSQSPSPSPAREKLTRPAASPAVGEKLKKTEPAAGKETGAAKPKLTPQEKLKLRMQKALNRQFKADKKAAQEKMIQQEHERQEREDELRAMARKIRMKERERREKEREEWERQYSRQSRSPSPRYSREYSSSRRRSRSRSRSPHYRH
partner: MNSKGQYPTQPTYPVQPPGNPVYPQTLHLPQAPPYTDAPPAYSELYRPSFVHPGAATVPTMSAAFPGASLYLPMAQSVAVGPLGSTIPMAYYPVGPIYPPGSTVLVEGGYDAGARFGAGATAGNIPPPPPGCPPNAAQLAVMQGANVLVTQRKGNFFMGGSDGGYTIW
B2: Protein VAC14 homolog (Homo sapiens), Q08AM6 (parent)
chain: MNPEKDFAPLTPNIVRALNDKLYEKRKVAALEIEKLVREFVAQNNTVQIKHVIQTLSQEFALSQHPHSRKGGLIGLAACSIALGKDSGLYLKELIEPVLTCFNDADSRLRYYACEALYNIVKVARGAVLPHFNVLFDGLSKLAADPDPNVKSGSELLDRLLKDIVTESNKFDLVSFIPLLRERIYSNNQYARQFIISWILVLESVPDINLLDYLPEILDGLFQILGDNGKEIRKMCEVVLGEFLKEIKKNPSSVKFAEMANILVIHCQTTDDLIQLTAMCWMREFIQLAGRVMLPYSSGILTAVLPCLAYDDRKKSIKEVANVCNQSLMKLVTPEDDELDELRPGQRQAEPTPDDALPKQEGTASGGPDGSCDSSFSSGISVFTAASTERAPVTLHLDGIVQVLNCHLSDTAIGMMTRIAVLKWLYHLYIKTPRKMFRHTDSLFPILLQTLSDESDEVILKDLEVLAEIASSPAGQTDDPGPLDGPDLQASHSELQVPTPGRAGLLNTSGTKGLECSPSTPTMNSYFYKFMINLLKRFSSERKLLEVRGPFIIRQLCLLLNAENIFHSMADILLREEDLKFASTMVHALNTILLTSTELFQLRNQLKDLKTLESQNLFCCLYRSWCHNPVTTVSLCFLTQNYRHAYDLIQKFGDLEVTVDFLAEVDKLVQLIECPIFTYLRLQLLDVKNNPYLIKALYGLLMLLPQSSAFQLLSHRLQCVPNPELLQTEDSLKAAPKSQKADSPSIDYAELLQHFEKVQNKHLEVRHQRSGRGDHLDRRVVL
partner: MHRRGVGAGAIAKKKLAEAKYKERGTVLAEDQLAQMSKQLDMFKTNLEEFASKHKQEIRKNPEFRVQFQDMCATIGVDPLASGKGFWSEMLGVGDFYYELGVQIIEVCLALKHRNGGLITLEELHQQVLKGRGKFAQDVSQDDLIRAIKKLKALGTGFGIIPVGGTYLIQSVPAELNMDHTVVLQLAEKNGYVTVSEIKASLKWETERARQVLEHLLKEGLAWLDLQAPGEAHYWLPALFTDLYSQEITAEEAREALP
B3: Ribosome assembly protein METTL17, mitochondrial (Homo sapiens), Q9H7H0 (parent)
chain: MAAALKCLLTLGRWCPGLGVAPQARALAALVPGVTQVDNKSGFLQKRPHRQHPGILKLPHVRLPQALANGAQLLLLGSAGPTMENQVQTLTSYLWSRHLPVEPEELQRRARHLEKKFLENPDLSQTEEKLRGAVLHALRKTTYHWQELSYTEGLSLVYMAARLDGGFAAVSRAFHEIRARNPAFQPQTLMDFGSGTGSVTWAAHSIWGQSLREYMCVDRSAAMLVLAEKLLKGGSESGEPYIPGVFFRQFLPVSPKVQFDVVVSAFSLSELPSKADRTEVVQTLWRKTGHFLVLVENGTKAGHSLLMDARDLVLKGKEKSPLDPRPGFVFAPCPHELPCPQLTNLACSFSQAYHPIPFSWNKKPKEEKFSMVILARGSPEEAHRWPRITQPVLKRPRHVHCHLCCPDGHMQHAVLTARRHGRDLYRCARVSSWGDLLPVLTPSAFPPSTAQDPSES
partner: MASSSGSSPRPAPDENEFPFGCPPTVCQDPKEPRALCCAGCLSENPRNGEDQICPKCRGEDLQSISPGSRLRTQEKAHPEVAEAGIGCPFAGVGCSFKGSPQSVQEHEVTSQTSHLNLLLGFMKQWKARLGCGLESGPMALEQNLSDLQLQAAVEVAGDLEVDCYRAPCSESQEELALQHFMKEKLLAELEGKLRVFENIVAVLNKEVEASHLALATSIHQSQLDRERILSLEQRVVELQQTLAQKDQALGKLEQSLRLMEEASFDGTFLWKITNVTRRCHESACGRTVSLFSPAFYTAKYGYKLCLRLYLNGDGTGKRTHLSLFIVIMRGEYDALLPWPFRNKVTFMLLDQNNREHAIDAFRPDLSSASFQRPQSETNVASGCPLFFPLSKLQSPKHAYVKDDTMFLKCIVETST
B4: Keratin, type I cuticular Ha8 (Homo sapiens), O76015 (parent)
chain: MTSSYSSSSCPLGCTMAPGARNVSVSPIDIGCQPGAEANIAPMCLLANVAHANRVRVGSTPLGRPSLCLPPTCHTACPLPGTCHIPGNIGICGAYGENTLNGHEKETMQFLNDRLANYLEKVRQLEQENAELEATLLERSKCHESTVCPDYQSYFHTIEELQQKILCSKAENARLIVQIDNAKLAADDFRIKLESERSLRQLVEADKCGTQKLLDDATLAKADLEAQQESLKEEQLSLKSNHEQEVKILRSQLGEKLRIELDIEPTIDLNRVLGEMRAQYEAMLETNRQDVEQWFQAQSEGISLQDMSCSEELQCCQSEILELRCTVNALEVERQAQHTLKDCLQNSLCEAEDRFGTELAQMQSLISNVEEQLSEIRADLERQNQEYQVLLDVKTRLENEIATYRNLLESEDCKLPCNPCSTSPSCVTAPCAPRPSCGPCTTCGPTCGASTTGSRF
partner: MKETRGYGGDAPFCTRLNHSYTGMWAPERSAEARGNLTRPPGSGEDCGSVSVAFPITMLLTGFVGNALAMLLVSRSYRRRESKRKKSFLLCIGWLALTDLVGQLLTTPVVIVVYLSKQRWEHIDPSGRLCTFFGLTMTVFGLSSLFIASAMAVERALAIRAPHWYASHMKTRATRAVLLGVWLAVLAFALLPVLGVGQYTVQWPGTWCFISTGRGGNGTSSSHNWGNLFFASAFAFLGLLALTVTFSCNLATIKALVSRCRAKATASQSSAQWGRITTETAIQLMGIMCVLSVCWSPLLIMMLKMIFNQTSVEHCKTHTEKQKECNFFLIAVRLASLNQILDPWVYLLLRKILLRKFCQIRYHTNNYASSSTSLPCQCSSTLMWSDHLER
B5: Coiled-coil domain-containing protein 120 (Homo sapiens), Q96HB5-4 (parent)
chain: MRREPRYQGQVGPDIHTDSERTLSSHQPRPLDSTKMEVKGQLISSPTFNAPAALFGEAAPQVKSERLRGLLDRQRTLQEALSLKLQELRKVCLQEAELTGQLPPECPLEPGERPQLVRRRPPTARAYPPPHPNQAHHSLCPAEELALEALEREVSVQQQIAAAARRLALAPDLSTEQRRRRRQVQADALRRLHELEEQLRDVRARLGLPVLPLPQPLPLSTGSVITTQGVCLGMRLAQLSQEDVVLHSESSSLSESGASHDNEEPHGCFSLAERPSPPKAWDQLRAVSGGSPERRTPWKPPPSDLYGDLKSRRNSVASPTSPTRSLPRSASSFEGRSVPATPVLTRGAGPQLCKPEGLHSRQWSGSQDSQMGFPRADPASDRASLFVARTRRSNSSEALLVDRAAGGGAGSPPAPLAPSASGPPVCKSSEVLYERPQPTPAFSSRTAGPPDPPRAARPSSAAPASRGAPRLPPVCGDFLLDYSLDRGLPRSGGGTGWGELPPAAEVPGPLSRRDGLLTMLPGPPPVYAADSNSPLLRTKDPHTRATRTKPCGLPPEAAEGPEVHPNPLLWMPPPTRIPSAGERSGHKNLALEGLRDWYIRNSGLAAGPQRRPVLPSVGPPHPPFLHARCYEVGQALYGAPSQAPLPHSRSFTAPPVSGRYYADFLYPPELSARLSDLTLEGEQSSSSDTQTPGTLV
partner: B3 partner
B6: Protein VAC14 homolog (Homo sapiens), Q08AM6 (parent)
chain: B2 chain

Variants of: B1
Details: with dazp2_human DAZAP2, Q15038

| Variant | effect of a mutation on the interaction |
| --- | --- |
| I163V | with no effect |

Variants of: B2
Details: with snf8_human SNF8, Q96H20

| Variant | effect of a mutation on the interaction |
| --- | --- |
| A127S | with no effect |

Variants of: B3
Details: with traf1_human TRAF1, Q13077

| Variant | effect of a mutation on the interaction |
| --- | --- |
| R212H | with no effect |

Variants of: B4
Details: with pe2r3_human PTGER3, P43115

| Variant | effect of a mutation on the interaction |
| --- | --- |
| D306A | with no effect |

Variants of: B4
Details: with pe2r3_human PTGER3, P43115
Remark: another data set of the same source

| Variant | effect of a mutation on the interaction |
| --- | --- |
| N270K | with no effect |

Variants of: B5
Details: with traf1_human TRAF1, Q13077

| Variant | effect of a mutation on the interaction |
| --- | --- |
| R346W | with no effect |

Variants of: B6
Details: with fnd3b_human FNDC3B

| Variant | effect of a mutation on the interaction |
| --- | --- |
| A127S | with no effect |

Variants of: B6
Details: with at2l2_human PHYKPL

| Variant | effect of a mutation on the interaction |
| --- | --- |
| A127S | with no effect |

Variants of: B6
Details: with cd209_human CD209, Q9NNX6
Chain of cd209_human CD209, Q9NNX6 (Q9NNX6 whole entry): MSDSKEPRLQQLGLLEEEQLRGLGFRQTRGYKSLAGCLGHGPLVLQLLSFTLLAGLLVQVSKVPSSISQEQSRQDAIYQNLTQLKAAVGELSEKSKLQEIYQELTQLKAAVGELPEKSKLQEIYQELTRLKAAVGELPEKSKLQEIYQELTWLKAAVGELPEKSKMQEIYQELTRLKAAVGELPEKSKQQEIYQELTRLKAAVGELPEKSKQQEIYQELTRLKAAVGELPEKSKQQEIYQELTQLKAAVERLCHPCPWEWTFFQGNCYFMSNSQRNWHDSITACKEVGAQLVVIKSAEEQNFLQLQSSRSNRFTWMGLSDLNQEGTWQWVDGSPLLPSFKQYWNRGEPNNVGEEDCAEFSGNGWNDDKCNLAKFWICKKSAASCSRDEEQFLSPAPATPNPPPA

| Variant | effect of a mutation on the interaction |
| --- | --- |
| A127S | with no effect |

Variants of: B6
Details: with myome_human PDE4DIP

| Variant | effect of a mutation on the interaction |
| --- | --- |
| A127S | with no effect |

Variants of: B6
Details: with co8a1_human COL8A1, P27658
Chain of co8a1_human COL8A1, P27658 (P27658 whole entry): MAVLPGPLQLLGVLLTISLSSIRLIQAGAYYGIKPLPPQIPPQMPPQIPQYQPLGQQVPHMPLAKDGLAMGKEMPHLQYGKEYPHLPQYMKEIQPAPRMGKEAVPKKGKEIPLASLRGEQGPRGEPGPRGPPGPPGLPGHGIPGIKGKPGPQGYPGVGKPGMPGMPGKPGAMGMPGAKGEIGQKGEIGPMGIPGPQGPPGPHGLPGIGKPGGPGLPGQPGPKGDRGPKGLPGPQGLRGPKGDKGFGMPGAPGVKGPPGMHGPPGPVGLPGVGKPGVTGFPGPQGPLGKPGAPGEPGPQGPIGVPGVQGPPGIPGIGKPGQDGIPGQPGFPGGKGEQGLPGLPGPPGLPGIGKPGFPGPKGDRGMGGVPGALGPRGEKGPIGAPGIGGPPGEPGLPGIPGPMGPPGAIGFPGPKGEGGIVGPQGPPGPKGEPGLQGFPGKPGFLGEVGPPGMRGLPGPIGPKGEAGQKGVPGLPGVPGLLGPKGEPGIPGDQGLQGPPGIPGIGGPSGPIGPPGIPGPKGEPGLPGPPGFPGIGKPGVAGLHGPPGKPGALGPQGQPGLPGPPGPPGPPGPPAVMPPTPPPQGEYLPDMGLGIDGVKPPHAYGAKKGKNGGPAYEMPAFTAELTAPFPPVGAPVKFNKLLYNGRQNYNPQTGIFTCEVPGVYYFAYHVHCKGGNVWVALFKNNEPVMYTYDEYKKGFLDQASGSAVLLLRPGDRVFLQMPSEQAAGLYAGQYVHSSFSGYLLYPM

| Variant | effect of a mutation on the interaction |
| --- | --- |
| A127S | with no effect |

Variants of: B6
Details: with znf34_human ZNF34, Q8IZ26
Chain of znf34_human ZNF34, Q8IZ26 (Q8IZ26 whole entry): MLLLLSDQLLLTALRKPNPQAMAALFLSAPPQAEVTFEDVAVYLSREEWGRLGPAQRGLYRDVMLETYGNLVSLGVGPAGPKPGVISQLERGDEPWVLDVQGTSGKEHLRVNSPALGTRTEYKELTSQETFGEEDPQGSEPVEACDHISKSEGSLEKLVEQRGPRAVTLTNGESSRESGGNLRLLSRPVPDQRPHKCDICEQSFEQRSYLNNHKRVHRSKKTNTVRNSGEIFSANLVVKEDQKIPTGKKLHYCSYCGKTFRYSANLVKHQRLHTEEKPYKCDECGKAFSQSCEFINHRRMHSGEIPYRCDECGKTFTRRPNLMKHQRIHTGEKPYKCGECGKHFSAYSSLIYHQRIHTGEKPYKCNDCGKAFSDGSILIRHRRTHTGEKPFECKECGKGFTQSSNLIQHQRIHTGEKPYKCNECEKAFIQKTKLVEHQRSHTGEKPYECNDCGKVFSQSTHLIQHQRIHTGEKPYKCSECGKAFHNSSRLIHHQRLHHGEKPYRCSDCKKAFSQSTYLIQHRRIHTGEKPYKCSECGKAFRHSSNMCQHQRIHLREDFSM

| Variant | effect of a mutation on the interaction |
| --- | --- |
| A127S | with no effect |

Variants of: B6
Details: with ntaq1_human NTAQ1, Q96HA8
Chain of ntaq1_human NTAQ1, Q96HA8 (Q96HA8 whole entry): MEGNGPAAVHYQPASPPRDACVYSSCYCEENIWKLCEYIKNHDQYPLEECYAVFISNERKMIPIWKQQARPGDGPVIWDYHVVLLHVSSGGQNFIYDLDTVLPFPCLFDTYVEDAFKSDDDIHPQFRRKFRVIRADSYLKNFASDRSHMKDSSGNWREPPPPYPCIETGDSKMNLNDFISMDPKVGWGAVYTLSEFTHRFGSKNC

| Variant | effect of a mutation on the interaction |
| --- | --- |
| A127S | with no effect |

Variants of: B6
Details: with casp1_human CASP1, P29466
Chain of casp1_human CASP1, P29466 (P29466 whole entry): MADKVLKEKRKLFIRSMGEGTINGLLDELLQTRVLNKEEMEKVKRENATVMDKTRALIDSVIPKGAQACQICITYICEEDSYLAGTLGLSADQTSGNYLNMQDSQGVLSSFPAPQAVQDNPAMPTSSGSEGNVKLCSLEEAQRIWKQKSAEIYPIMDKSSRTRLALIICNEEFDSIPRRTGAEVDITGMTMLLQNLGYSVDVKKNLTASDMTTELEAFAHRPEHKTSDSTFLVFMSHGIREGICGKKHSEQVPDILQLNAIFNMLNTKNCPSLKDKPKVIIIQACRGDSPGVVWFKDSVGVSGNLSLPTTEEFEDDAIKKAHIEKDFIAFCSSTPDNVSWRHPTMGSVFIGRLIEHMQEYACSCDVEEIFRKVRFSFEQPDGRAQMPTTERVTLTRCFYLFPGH

| Variant | effect of a mutation on the interaction |
| --- | --- |
| A127S | with no effect |

Variants of: B6
Details: with fyv1_human PIKFYVE

| Variant | effect of a mutation on the interaction |
| --- | --- |
| A127S | with no effect |

Reference: IntAct's records for PubMed 29892012
